# Laboratory results reported in the nanobody polyreactivity screen of Harvey et al. (2022).
# Assay: yeast display, Sf9 membrane polyspecificity reagent, FACS + sequencing; frameworks hold sequencing errors
# In short: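 After 36–48 hours of galactose induction, yeast (Saccharomyces cerevisiae BJ5465) displaying a synthetic nanobody library were stained at 4 °C for 1 hour with 10% biotinylated, detergent-solubilized Sf9 membrane reagent. Streptavidin microbeads enriched the stained cells before FACS sorting into low and high (top ~1%) gates on anti-HA and streptavidin fluorescence. Each clone's polyreactivity label reflects its gate of origin.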
row,Sequence,polyreactivity (PSR sort gate)
1,QVQLVESGGGLVQAGGSLRLSCAATGSIFLYYAMGWYRQAPGKERELVAGINRVGSTNYADSVKGRFTISRDNAKNTVYLELNSLKPEDTAVYYCAAKYRNRYDYWGQGTQATVSS,low polyreactivity
2,QVQLVESGGGLVQAGGSLRLSCAATGSIFQSYAMGRYRQAPGKERELVAGISSGGSTNYADSVKGRFTISRDNAMNTDYLQMNSLKPEDTAVYYCATGGFAGASFAYEYYYWGQGTQVTVSS,low polyreactivity
3,QVQLVESGGGLVQAGGSLRLSCAATGSIFRWNTMGWYRPAPGKERELVAVITWSGDSTYYADSVKGRFTISRDNAKNTVYLQMNSLKPEDTAVYYCAVDVVTSYYELTGSFNYWGQGTQVTVSS,low polyreactivity
4,QVQLVESGGGLVQAGGSLRLSCAATGSIFRYNTMGWYRQAPGKERELVATITRRGGSTYYADSVKGRITISRDNAKNTVYLQMNSLKPVDTAVYYCNDDNFGGPYNYWGQGTQVTVSS,low polyreactivity
5,QVQLVESGGGLVQAGGSLRLSCAATGSIFYNYAMGWYRQAPGKERELVAAINRSGGITFYADSVKGRFTISRDNAKNTVYLQMNSLKPEDTAVYYCAAEEVPYDRDMDYWGQGTQVTVSS,low polyreactivity
6,QVQLVESGGGLVQAGGSLRLSCAATGSILNYYAMGWYRQAPGKERELVATISSGGNTHYADSVKGRFTISRDNAKNTVYLQMNSLKPEDTAVYYSAAVASKHWGRDYWGQGTQVTVSS,low polyreactivity
7,QVQLVESGGGLVQAGGSLRLSCAATGSPFILYALGWYRQAPGKERALVAAITTSGGSTYYADSVKGRFTISRDNAKNTVYLQMNSLKPEDTAVYYCNADWGWRYSSDFDYWGQGTQVTVSS,low polyreactivity
8,QVQLVESGGGLVQAGGSLRLSCAATGSTVDFYAMGWNRQAPRKERELVAAISWSAGSTYYADSVKGRFTISRDNAKNTVYLQMNSLKPEDTAVYYCNADYWGQGTQVTVSS,low polyreactivity
9,QVQLVESGGGLVQAGGSLRLSCAATVSTFWNYAMGWYRQAPGKERELVAAITRGSSTNYADSVKGRFRISRDNAKNTVYLQMNSLKPEVTAVYYCAKRVGRWSAFYYWGQGTQVTVSS,high polyreactivity
10,QVQLVESGGGLVQAGGSLRLSCAAYGFFYNAMGWYRPAPGKERELVAAISWSGASTYYADSVKGRFTISRDNAKNTVYLQMNSLKPEDTAVFYCNADPRLRQTRDYWGQGTQVSVSS,high polyreactivity
11,QVQLVESGGGLVQAGGSLRLSCAAYGFIFGGNAMGWYRQAPGKERELVAAITARSGSTYYADSVKGRFTISRDNAKNTVYLQMNSLKPEDTAVYYCATPVYRSTYEYDYWGQGTQVTVSS,low polyreactivity
12,QVQLVESGGGLVQAGGSLRLSCAAYGFIFSYYAMGWFRQAPGKEREFVATITWRGGSTYYADSVKGRFTISRDNAKNTVYLQMNSLKPEDTAVYYCAARKRTPGYGYWGQGTQVTVSS,high polyreactivity
13,QVQLVESGGGLVQAGGSLRLSCAAYGFIFSYYTMGWYRQAPGKERELVAAISYSGGSTYYADSVKGRFTISRDNAKNNVYLQMNSLKPEDTAVYYCTAVAAATYDYWGQGTQVTVSS,high polyreactivity
14,QVQLVESGGGLVQAGGSLRLSCAAYGFIIARNAMGWYRQAPGKERELVAAISAAGGRTYYADSVKGRFTISRDNAKITVYFQMNSLKPEDTAVYYCAARRDGRCGSYNYWGQGTQVTVSS,high polyreactivity
15,QVQLVESGGGLVQAGGSLRLSCAAYGITFPSYVMGWYRQAPGKERELVAAISWRGGSTYYADSVKGRFTISRDNAKNTVYLQMNSLKPEDTAVYYCAAEYLVWYTFYPKYDYWGQGTQVTVSS,high polyreactivity
16,QVQLVESGGGLVQAGGSLRLSCAAYGITFYLYAMGWYIQAPGKERELVAAITSSGGSTYYADSVKGRFTISRDNAKNTVYFQMNSLKPEDTAVYYCNALYFSQDRYDYWGQGTQVTVSS,high polyreactivity

row,Sequence,polyreactivity (PSR sort gate)
1,QVQLVESGGGLVQAGGSLRLSCAAYGLTFYGYGMGWYRQAPGKERELVASITSGGNTYYADSVKGRFTISRDNAKNTVYLQMNSLKPEDTAVYYCAVTAIALYYSSGYYWGQGTQVTVSS,low polyreactivity
2,QVQLVESGGGLVQAGGSLRLSCAAYGNTFYPYTMGWYRQAPGKERELVADITYIGGDTYYADSVKGRFTISRDNAKNTVYLQMNSLKPEDTAVYYCNKDGGYFETYHTYTLDDYWGQGTQVTVSS,low polyreactivity
3,QVQLVESGGGLVQAGGSLRLSCAAYGRIFKYYVMGWYRPAPGKERELVATISSGSGTNYADSVKGRFTISRDNAKNTVYLQMNSLKPEDTAVYYCAARWTPRVRGYNYWGQGTLVTVSS,high polyreactivity
4,QVQLVESGGGLVQAGGSLRLSCAAYGRIFSTYAMGWYRQAPGKERELVAAINSIGGRTYYADSVKGRFTISRDNAKNTVYLQMNSLKPEDTAVYYCAAGYRTRRGLGYYYWGQGTQVTVSS,high polyreactivity
5,QVQLVESGGGLVQAGGSLRLSCAAYGRISYYYAMGWYRQAPGKERELVAAITYSTGSTYYADSVKGRFTISRDNAKNTVYLQMNSLKPEDSAVYYCAARYWRWLFPFDYWGQGTKVTVSS,high polyreactivity
6,QVQLVESGGGLVQAGGSLRLSCAAYGRTFASYALGWYRQAPGKEREFVAVISVNGGNTYYADSVKGRFTISRDNAKNTVYLQMNSLKPEDTAVYYCARFDGWYQGYYPLYEFDYWGQGTQVTVSS,high polyreactivity
7,QVQLVESGGGLVQAGGSLRLSCAAYGRTFDTYAMGWYLQAPGKERELVAAISFSGASTYYADSVKGRFTISRDNAKNTVYLQLNSLKPEDTAVYYCNARYGYRVPLTPIGARFNYWGQGTQETVSS,high polyreactivity
8,QVQLVESGGGLVQAGGSLRLSCAAYGRTFFWNAMGLYRKAPGTETELVAAITWSGGSTYYADSVKGRFTISRDNAKITVYLQMNSLKPEDTAVYYCASVVSDYVWRYEYWGQGTQVTVSS,low polyreactivity
9,QVQLVESGGGLVQAGGSLRLSCAAYGRTFNDYAMGWYRQAPGKERELVAAIDSDGDTNYADSVKGRFTISRDNAKNTVYLQMNSLKPEDTAVFYCNAVRLVVQEWYYYFTFDYWGQGTQVTVSS,low polyreactivity
10,QVQLVESGGGLVQAGGSLRLSCAAYGRTIRYYSMGRYRQAPAKERELVATISRRSGNTYYADSVKGRFTLSRDNAKNTVYLKMNSLKPEDTAVYYCAVRYFGLYNYDYWGQGTQVTVSS,high polyreactivity
11,QVQLVESGGGLVQAGGSLRLSCAAYGRTITYYAMGGYRQSPGKERELVAAIPWSGGSTYYADSVKGRFTISRDNAKNTVYLQMNSLKPEDTAVYYCSADSYIYSVNYWGQGTQLTVSS,low polyreactivity
12,QVQLVESGGGLVQAGGSLRLSCAAYGSIFCIFAMGWYRQAPGKEWELVAAISSDGSTKYADSVKGRFTISRDNAKNTVYFQMNSLKPEDTAVYYCAKLKYVRIGGPKQSMALDYWGQGTQVTVSS,low polyreactivity
13,QVQLVESGGGLVQAGGSLRLSCAAYGSIFPYYAMGWYRQAPGKERELVAGITSGTRTNYADSVKGRFTISRDNAKNTVYLQMNSLKPEDTAVYYCAAYYRAYRRDYYWGQGTQVTVSS,high polyreactivity
14,QVQLVESGGGLVQAGGSLRLSCAAYGSIFSFYVMGWNRQAPGKERELVARINWSSTSTYYADSVKGRFTISRDNAKNTVYLQMNSLKPEDTAVYYCAAGRRVYPGYYYWGQGTQVTVSS,high polyreactivity
15,QVQLVESGGGLVQAGGSLRLSCAAYGSTFFRYAMGWYRQAPGKERELVAAISASTGSTYYADSVKGRFTISRDNAKNTVYLQMNSLKPEDTAVYYCNAELGYGTNDNWYDYWGKGTQVTVSS,low polyreactivity
16,QVQLVESGGGLVQAGGSLRLSCAAYGSTFRSYAMGWYRQAPGKERELVAAISYSGDSTYYADSVKGRFTISRDNAKNTVYLQMNSLKPEDTAVYYCAALRDWDFQCEPWKRYGYWGQGTLVTVSS,low polyreactivity
